Assay results as given in patent US20060292565A1.

Biological target: stimulatory G-protein, Gs

Gly-389 beta-1 adrenergic receptor
[35S]GTPγS binding in the presence of 10 µM isoproterenol: 770000 dpm/mg
